Experimental data from IntAct's records for PubMed 23386615.

B1: Peroxiredoxin-1 (Homo sapiens), Q06830 (parent)
chain: MSSGNAKIGHPAPNFKATAVMPDGQFKDISLSDYKGKYVVFFFYPLDFTFVCPTEIIAFSDRAEEFKKLNCQVIGASVDSHFCHLAWVNTPKKQGGLGPMNIPLVSDPKRTIAQDYGVLKADEGISFRGLFIIDDKGILRQITVNDLPVGRSVDETLRLVQAFQFTDKHGEVCPAGWKPGSDTIKPDVQKSKEYFSKQK
partner: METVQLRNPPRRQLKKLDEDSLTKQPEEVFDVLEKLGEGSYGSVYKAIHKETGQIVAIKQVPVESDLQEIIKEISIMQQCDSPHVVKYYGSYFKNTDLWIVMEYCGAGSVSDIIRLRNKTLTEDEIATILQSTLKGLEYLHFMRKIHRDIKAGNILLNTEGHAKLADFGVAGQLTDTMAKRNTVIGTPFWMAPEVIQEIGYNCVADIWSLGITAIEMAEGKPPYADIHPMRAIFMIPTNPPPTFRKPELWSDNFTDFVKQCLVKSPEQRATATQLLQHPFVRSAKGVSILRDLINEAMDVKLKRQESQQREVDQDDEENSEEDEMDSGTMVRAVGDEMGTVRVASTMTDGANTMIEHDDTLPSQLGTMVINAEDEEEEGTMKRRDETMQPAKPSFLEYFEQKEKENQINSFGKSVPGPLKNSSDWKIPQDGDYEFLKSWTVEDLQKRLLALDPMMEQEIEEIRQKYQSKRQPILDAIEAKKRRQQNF
B2: Serine/threonine-protein kinase 4 (Homo sapiens), Q13043 (parent)
chain: B1 partner
partner: B1 chain

Variants of: B1
Details: with stk4_human STK4, Q13043

Row | effect of a mutation on the interaction | Variant
1 | decreasing interaction | MSSGNAKIGHPAPNFKATAVMPDGQFKDISLSDYKGKYVVFFFYPLDFTFVSPTEIIAFSDRAEEFKKLNCQVIGASVDSHFCHLAWVNTPKKQGGLGPMNIPLVSDPKRTIAQDYGVLKADEGISFRGLFIIDDKGILRQITVNDLPVGRSVDETLRLVQAFQFTDKHGEVSPAGWKPGSDTIKPDVQKSKEYFSKQK [C52S;C173S]

Variants of: B2
Details: with prdx1_human PRDX1, Q06830

Row | effect of a mutation on the interaction | Variant
2 | increasing interaction | METVQLRNPPRRQLKKLDEDSLTKQPEEVFDVLEKLGEGSYGSVYKAIHKETGQIVAIRQVPVESDLQEIIKEISIMQQCDSPHVVKYYGSYFKNTDLWIVMEYCGAGSVSDIIRLRNKTLTEDEIATILQSTLKGLEYLHFMRKIHRDIKAGNILLNTEGHAKLADFGVAGQLTDTMAKRNTVIGTPFWMAPEVIQEIGYNCVADIWSLGITAIEMAEGKPPYADIHPMRAIFMIPTNPPPTFRKPELWSDNFTDFVKQCLVKSPEQRATATQLLQHPFVRSAKGVSILRDLINEAMDVKLKRQESQQREVDQDDEENSEEDEMDSGTMVRAVGDEMGTVRVASTMTDGANTMIEHDDTLPSQLGTMVINAEDEEEEGTMKRRDETMQPAKPSFLEYFEQKEKENQINSFGKSVPGPLKNSSDWKIPQDGDYEFLKSWTVEDLQKRLLALDPMMEQEIEEIRQKYQSKRQPILDAIEAKKRRQQNF [K59R]
